B1: 234C9G5 (antibody, V domains shown)
VH: QAYLQQSGAELVRSGASVKMSCKASGYAFTSHNMHWVKQTPGQGLEWIGYISPGNGYTNYNQKFRGKATLTADTSSSTAYMQIGSLTSEDSAVYFCTRDYYGNSFAYWGQGTLVTVSA
VL: DIVMTQSPSSLTEKAGERVSMSCKSSQSLFNSGNQKNYLTWYQQKPGQPPKLLIYWASTRESGVPDRFTGSGSGTDFTLTISSVQAEDLAVYYCQNNYWFPFTFGAGTKLELK
B2: 234E1F12 (antibody, V domains shown)
VH: QAYLQQSGAELVRSGASVKMSCKASGYTFTSHNMHWVKQTPRQGLEWIGYIYPGNGDTNYNQKFKGKATLTADTSSSTAYMQISSLTSEDSAVYFCTRDYYGNSFAYWGQGTLVTVSA
VL: DIVMTQSPSSLTEKAGERVSMSCKSSQSLFNSGNQKNYLTWYQQKPGQPPKLLIYWASTRESGVPDRFTGSGSGTDFTLTISSVQAEDLAVYYCQNAYWYPFTFGAGTKLELK
B3: 185F2G12 (antibody, V domains shown)
VH: QAYLQQSGAELVRSGASVKMSCKASGYTFTSYNMHWVRQTPGQGLEWIGYIYPGNGGTNYSQKFKGKASLTADTSSTTAYMQISSLTSEDSAVYFCATGRGFAYWGQGTLVTVSA
VL: DIVMTQSPSSLTVTAGEKVTLSCKSSQSLFNTGNQKNYLTWYQQKPGQPPKLLIFRASTRESGVPDRFTGSGFGTDFTLTISSVQAEDLAVYYCQNDFSYPLTFGAGTKLELK
B4: 235A10C9 (antibody, V domains shown)
VH: QAYLQQSGAELVRSGASVKMSCKASGYTFASHNMHWVKQTPGQGLEWIGYIYPGNSGTKYNQKFTGKATLTADTSSSTAYMQITSLTSEDSAVYFCARDYYGNSFAYWGQGTLVTVSA
VL: DIVMTQSPSSLTEKAGEKVSMRCKSSQSLLNSGNQKNYLTWYQQKPGQPPKLLIYWASTRESGVPDRFTGSGSGTDFTLTISSVQADDLAVYYCQNDYMFPFTFGAGTKLELK
B5: 240A8E7 (antibody, V domains shown)
VH: QAYLQQSGAELVRSGASVKMSCKASGYTFTNYNIHWVKQTPGQGLEWIGYIYPGNGDNYYNQKFKGKATLTADTSSSTAYMQISSLTSEDSAVYFCARDYYGNSFAYWGQGTLVTVSA
VL: DVVMTQSPSSLTVTAGEKVTMNCKSSQSLLNSGNQKNYLTWYQQKPGQPPKMLIYWASTRESGVPDRFTGSGSGTDFTLTISSVQAEDLAIYYCQNDYYYPFTFGAGTKLELK
B6: 240D6F5 (antibody, V domains shown)
VH: QAYLQQSGAELVRSGASVKMSCKASGYTFTSHNMHWVKQTPGQGLEWIGYIYPGNGGTNYNQKFKGKATLTADPSSSTAYMQINSLTSEDSAVYFCTRDYYGNSFAYWGQGTLVTVSA
VL: DIVMTQSPSSLTEKAGERVSMSCKSSQSLFNSGNQKNYLTWYQQKPGQPPKLLIYWASTRESGVPDRFTGSGSGTDFTLTISSVQAEDLAVYYCQNDYRYPFTFGAGTKLELK
B7: 241H10A1 (antibody, V domains shown)
VH: QVQLQQSGAELVKPGASVKLSCKASGYTFTSFGINWLRQRPEQGLEWIGWIFPGDGNSKYNENFKGKATLTTDKSSSTAYMQVTRLTSEDSAVYFCARFYYGNSFANWGQGTLVTVSA
VL: DIVMTQSPSSLTVTAGEKVTMSCKSSQSLLNSGNQKNYLTWYQQKPGQPPKLLIYWAATRESGVPDRFTGSGSGTDFTLTISSVQAEDLAVYYCQNDYFYPFTFGGGTKLELK
B8: 242F5H2 (antibody, V domains shown)
VH: EVMLVESGGGLVKPGGSLKLSCAASGFTFSSYTVSWVRQTPEKRLEWVATSIVGSTYTYFPDSVKGRFTISRDFAKNTLFLQMSSLRSEDTAMYYCSRLGRGNAMDYWGQGTSVSVSS
VL: DIVMTQSPSSLTVTAGEKVTLNCRSSQSLLNSGNQKNYLTWYQQKPGQPPKLLIYWASTRESGVPDRFTGSGSGTDFTLTISSVQADDLAVYYCQNGYSYPFTFGSGTKLEIK
B9: 186F7E10 (antibody, V domains shown)
VH: EVMLVESGGGLVKPGGSLKLSCAASRFTLNSYAMSWIRQTPEKKLEWVATITSGVSHTYYFDSVKGRFTISRDTAKNTLNLQMNSLRSEDTAVYYCARLYYGNSLDYWGQGTSVTVSS
VL: DIVMTQSPSSLTVTAGEKVTVSCKSSQSLLNSGNQKNYLTWYQQKPGQPPKLLIYWASTRESGVPDRFTGSGSGTDFTLTISSVQSEDLAVYYCQNNYIYPLTFGAGTTLELK
B10: 242H12D6 (antibody, V domains shown)
VH: QAYLQQSGAELVRSGASVKMSCKASGYTFTSHNMHWVKQTPGQGLEWIGYIYPGNGGTNYNQKFKGKATLTADTSSSTAYMQINSLTSEDSAVYFCTRDYYGNSFAYWGQGTLVTVSA
VL: DIVMTQSPSSLTEKAGERVSMSCKSSQSLFNSGNQKNYLTWYQQKPGQPPKLLIYWASTRESGVPDRFTGSGSGTDFTLTISSVQAEDLAVYYCQNDYRYPFTFGAGTKLELK
B11: 243B4F2 (antibody, V domains shown)
VH: QAYLQQSGAELVRSGASVKMSCKASGYTFTSHNLHWVKQTPGQGLEWIGYIYPGNGNTNYNQKFKGKATLTADTSSSTAYMQISSLTSEDSAVYFCTRDYYGNSFAYWGQGTLVTVSA
VL: DIVMTQSPSSLTEKAGERVSMSCKSSQSLFNSGNQKNYLTWYQQKPGQPPKLLIYWASTRESGVPDRFTGSGSGTDFTLTISSVQAEDLAVYYCQNNYWFPFTFGAGTKLELK
B12: 243F6D2 (antibody, V domains shown)
VH: QAYLQQSGAELVRSGASVKMSCRASGYTFTSHNMHWVKQTPGQGLEWIGYIYPGNGGTYYNQKFKGKATLTADTSSSTAYMQISSLTSEDSAVYFCARDYYGNSFVYWGQGTLVTVSA
VL: DVVMTQSPSSLTEKTGEKVSMSCKSSQSLLNSGNQKNYLTWYQQKPGQPPKLLIYWASTRESGVPDRFTGSGSGTDFTLTISSLQTEDLAVYYCQNNYRYPFTFGAGTKLELK
B13: 246B5F2 (antibody, IgM, V domains shown)
VH: EVMLVESGGGLMKPGGSLKLSCAASEFTFSNYAMSWVRQTPEKRLEWVATISSGRSSTYYPDSVKGRFTISRDNAKNTLYLQMSSLRSEDTAMYYCAGLGRGNAMEYWGQGTSVTVSS
VL: DIVMTQSPSSLTVTAGEKVTLSCKSSQSLLNSGNQKNYLTWYQQKPGQPPKLLIYWASTRESGVPDRFTGSGSGTDFILTINSVQAEDLAVYYCQNAYSYPFTFGSGTKLEIK
B14: 248E6A7 (antibody, V domains shown)
VH: QAYLQQSGAELVRSGASVKMSCRASGYTFTSHNMHWVKQTPGQGLEWIGYIYPGNGNTYYNQKFKVKATLTADTSSNTAYMQINSLTSEDSAVYFCVRDYYGNSFVYWGQGTLVTVSA
VL: DVVMTQSPSSLTEKTGEKVTMTCKSSQSLLNSGNQKNYLAWYQQKPGQPPKLLIYWASTRESGVPDRFIGSGSGTDFTLTISSLQTEDLAVYYCQNNYMYPFTFGAGTKLELK
B15: 252C10F6 (antibody, V domains shown)
VH: QVHLKQSGRGLVQPSQSLSITCTVSGFSLPNYGVHWVRQPPGKGLEWLGVIWSGGNTDYNTVFKARLSITKDNSKSQVFFKMNSLQADDTAIYYCARNLYGNYDYAMDYWGQGTSVTVSS
VL: DIVMTQSPATLSVTPGDRVSLSCRASQSISDYLHWYQQKSHESPRLLIKYASQSISGIPSRFSGSGSGSEFTLSINSVEPEDVGVYYCQNGHSFPFTFGSGTKLEIK
B16: 252E7C9 (antibody, V domains shown)
VH: QTYLQQSGAELVRSGASVKMSCRTSGYSFTSHNMHWVKQTPGQGLEWIGYIYPGNGGSYYNQKFKGKAILTADTSSSTAYMQISSLTSEDSAVYFCTRDYYGNSFVYWGQGTLVTVSA
VL: DVVMTQSPSSLTEKTGEKVSMSCKSSQSLLNSGNQKNYLTWYQQKPGQPPKLLIYWASTRESGVPDRFTGSGSGTDFTLTISSLQTEDLAIYYCQNNFRYPFTFGAGTKLELK
B17: 252F1B10 (antibody, V domains shown)
VH: QAYLQQSGAELVRSGASVKMSCKASGYTFTSHNMHWVKQTPGQGLEWIGYIYPGNGGTNYNQKFKGKATLTADTSSSTAYMQINSLTSEDSAVYFCTRDYYGNSFAYWGQGTLVTVSA
VL: DIVMTQSPSSLTEKAGERVSMSCKSSQSLFNSGNQKNYLTWYQQKPGQPPKLLIYWASTRESGVPDRFTGSGSGTDFTLTISSVQAEDLAVYYCQNDYRYPFTFGAGTKLELK
B18: 254A8D5 (antibody, V domains shown)
VH: EVMLVESGGGLVKPGGSLKLSCAASGFTFSSYTVSWVRQTPEKRLEWVATSIVGSTYTYFPDSVKGRFTISRDFAKNTLFLQMSSLRSEDTAMYYCSRLGRGNAMDYWGQGTSVSVSS
VL: DIVMTQSPSSLTVTAGEKVTLNCRSSQSLLNSGNQKNYLTWYQQKPGQPPKLLIYWASTRESGVPDRFTGSGSGTDFTLTISSVQADDLAVYYCQNGYSYPFTFGSGTKLEIK
B19: 256C3D3 (antibody, V domains shown)
VH: QAYLQQSGAELVRSGASVKMSCKASGYAFTSHNMHWVKQTPGQGLEWIGYISPGNGYTNYNQKFRGKATLTADTSSSTAYMQIGSLTSEDSAVYFCTRDYYGNSFAYWGQGTLVTVSA
VL: DIVMTQSPSSLTEKAGERVSMSCKSSQSLFNSGNQKNYLTWYQQKPGQPPKLLIYWASTRESGVPDRFTGSGSGTDFTLTISSVQAEDLAVYYCQNNYWFPFTFGAGTKLELK
B20: 257B1G9 (antibody, V domains shown)
VH: QAYLQQSGAELVRSGASVKMSCKASGYTFTSHNMHWVKQTPGQGLEWIGYIYPGNGGTNYNQKFKGKATLTADTSSSTAYMQISSLTSEDSAVYFCTRDYYGNSFAYWGQGTLVTVSA
VL: DIVMTQSPSSLTERAGERVSMSCKSSQSLFNSGNQKNYLTWYQQKPGQPPKLLIYWASTRESGVPDRFTGSGSGTDFTLTISSVQAEDLAVYYCQNDYRYPFTFGAGTKLELK
B21: 257F1E11 (antibody, V domains shown)
VH: QAYLQQSGAELVRSGASVKMSCKASGYTFTSHNIHWVKQTPRQGLEWIGYIYPGNGGTNYNQKFKGKATLTADTSSSTAYMQISSLTSEDSAVYFCTRDYYGNSFAYWGQGTLVTVSA
VL: DIVMTQSPSSLTEKAGERVSMSCKSSQSLFNSGNQKNYLTWYQQKPGQPPKLLIYWASTRESGVPDRFTGSGSGTDFTLTISSVQAEDLAIYYCQNDYWYPFTFGAGTKLELK
B22: 257G7B9 (antibody, V domains shown)
VH: QAYLQQSGAELVRSGASVKMSCKASGYTFTSHNLHWVKQTPGQGLEWIGYIYPGNGNTNYNQKFKGKATLTADTSSSTAYMQISSLTSEDSAVYFCTRDYYGNSFAYWGQGTLVTVSA
VL: DIVMTQSPSSLTEKAGERVSMSCKSSQSLFNSGNQKNYLTWYQQKPGQPPKLLIYWASTRESGVPDRFTGSGSGTDFTLTISSVQAEDLAVYYCQNNYWFPFTFGAGTKLELK

Each binder was assayed against Claudin18.2-His protein (human) (assay: indirect ELISA on coated Claudin18.2-His).
B1 was tested, and the EC50 was 0.0387 µg/mL. B2 gave an EC50 of 0.105 µg/mL. With B3 the EC50 was 0.0193 µg/mL. B4 was tested, and the EC50 was 0.0355 µg/mL. Work on B5 yielded an EC50 of 0.0145 µg/mL. B6 gave an EC50 of 0.00792 µg/mL. B7 gave an EC50 of 0.0221 µg/mL. B8 gave an EC50 of 0.0193 µg/mL. With B9 the EC50 was 0.0109 µg/mL. For B10, the EC50 was 0.0164 µg/mL. B11 showed an EC50 of 0.0125 µg/mL. B12 was tested, and the EC50 was 0.0346 µg/mL. Work on B13 yielded an EC50 of 0.141 µg/mL. Binder B14 has an EC50 of 0.00969 µg/mL. B15 gave an EC50 of 1.66 µg/mL. B16 was tested, and the EC50 was 0.00869 µg/mL. B17 gave an EC50 of 0.00723 µg/mL. Work on B18 yielded an EC50 of 0.0252 µg/mL. Work on B19 yielded an EC50 of 0.0133 µg/mL. B20 gave an EC50 of 0.00793 µg/mL. For B21, the EC50 was 0.0262 µg/mL. For B22, the EC50 was 0.00978 µg/mL.

From US20220073643A1
